Measured values published in paper PMC9643425, “Structural model for ligand binding and channel opening of an insect gustatory receptor” (The Journal of Biological Chemistry, 2022).
Where “and” joins values, the source holds several entries; their conditions need not be identical. Identical values can stand only once.

What was measured:
[1] = target: BmGr9 silkworm gustatory receptor (Bombyx mori (silkworm)); test: cross-linking; HEK293T cells expressing BmGr9 incubated with various concentrations of disuccinimidyl suberate (DSS) at 37 °C for 15 min; lysed in 0.1% RIPA buffer; SDS-PAGE with 5 M urea; Western blot with anti-BmGr9 antibody
[2] = target: meGFP-BmGr9 (Bombyx mori (silkworm)); test: single-molecule imaging, counting of photobleaching steps (TIRF microscopy); meGFP-BmGr9 on the plasma membrane of Xenopus oocytes; bleaching steps at single spots (n = 569) fitted with binomial distributions of tetramer, pentamer and hexamer models
[3] = target: T1, BmGr9 (Bombyx mori, UniProt B3GTD7, I440C); test: two-electrode voltage clamp in Xenopus oocytes, […] MTSET, cysteine modification; assay type: cell-based
T1 construct: gene Gr9; full-length
T1 sequence (B3GTD7 1-449 I440C): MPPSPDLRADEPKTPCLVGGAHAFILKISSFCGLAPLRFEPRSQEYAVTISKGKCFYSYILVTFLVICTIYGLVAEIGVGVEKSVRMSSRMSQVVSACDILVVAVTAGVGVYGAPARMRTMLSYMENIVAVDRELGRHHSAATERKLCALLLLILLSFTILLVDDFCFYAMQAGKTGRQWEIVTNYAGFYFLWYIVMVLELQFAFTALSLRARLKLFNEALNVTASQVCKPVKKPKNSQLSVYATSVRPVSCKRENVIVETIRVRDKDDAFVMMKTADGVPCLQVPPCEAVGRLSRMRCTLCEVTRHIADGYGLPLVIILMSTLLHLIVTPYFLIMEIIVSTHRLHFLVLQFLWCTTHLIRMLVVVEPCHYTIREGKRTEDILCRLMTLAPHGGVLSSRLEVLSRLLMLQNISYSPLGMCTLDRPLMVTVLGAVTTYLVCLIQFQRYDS

In the case of BmGr9 silkworm gustatory receptor, the stoichiometry N [1] is reported as 2 and 4.

With meGFP-BmGr9 (receptor) the stoichiometry N [2] was 4.

`C[N+](C)(C)CCSS(C)(=O)=O` [MTSET, 2-(trimethylammonium)ethyl methanethiosulfonate, bromide] was tested, and the “two-electrode voltage clamp in Xenopus oocytes, 2.5 mM MTSET, cysteine modificat” value [3] was “whereas the response of I440C was markedly inhibited by MTSET application”.
